We go through 6 compounds from patent US20240182531A1, “KV1.3 Blockers” (priority 2021, published 2024).

For data set [1], the target named is human Kv1.3 (potassium voltage-gated channel subfamily A member 3) (human) (UniProt P22001). Put plainly: cell-based or functional assay.
Data set [2] addresses human Kv1.2 potassium ion channel (human) (UniProt P16389). Put plainly: cell-based or functional assay.
The target in data set [3] is human Kv1.6 potassium ion channel (human) (UniProt P17658). Nature of the data set: cell-based or functional assay.
The target in another data set is T1, human Kv1.1 (Homo sapiens, UniProt Q09470).
T1 construct: expressed in transfected cells; host or cells: CHO
Nature of the data set: cell-based. The note with it: for Selectivity ratio Kv1.1/Kv1.3: ratio of patch clamp IC50 values. (Patch clamp records ionic current or voltage across a cell membrane.)

The target in the next data set is T2, human Kv1.2 (Homo sapiens, UniProt P16389).
T2 construct: expressed in transfected cells; host or cells: CHO
Put plainly: cell-based. As to conditions: for Selectivity ratio Kv1.2/Kv1.3: ratio of patch clamp IC50 values.

Data set [4] is described as follows: Pharmacokinetic characterisation after single s.c. injection in Sprague Dawley rats. As to conditions: male, rat, plasma, sc, 100 nmol/kg. How it is done: Sprague Dawley (males with a body weight of approximately 250-350 g) were given a single subcutaneous (s.c.) injection of each peptide to be tested.
Following s.c. administration of the selected compounds (dose 100 nmol/kg, dosing volume either 2 mL/kg), blood samples were drawn at 5 min, 15 min, 30 min, 60 min, 2 h, 3 h, 4 h, 6 h, 8 h post-dose. At each sampling time point, samples from the rats were drawn by sublingual bleeding. After last sampling the rats were sacrificed by O2/CO2 anaesthesia. The dosing vehicle was 10 mM phosphate, 0.8% NaCl, 0.05% Polysorbate 20 (pH 6.0).
Plasma samples were analyzed after solid phase extraction (SPE) by liquid chromatography mass spectrometry (LC-MS/MS). Mean plasma concentrations were used for calculation of the pharmacokinetic parameters using the non-compartmental approach in Phoenix WinNonlin 6.4 or a later version. Plasma terminal elimination half-life (T½) was determined as In(2)/λz where λz is the magnitude of the slope of the log linear regression of the log concentration versus time profile during the terminal phase. AUCinf is the area under the plasma concentration—time curve extrapolated to infinity (AUCinf=AUClast+Clast/λz, where Clast is the last observed plasma concentration). Cmax is the maximum observed concentration, occurring at Tmax.

The target of data set [5] is T3, human Kv1.3 voltage-gated K+ channel (Homo sapiens, UniProt P22001).
T3 construct: host or cells: CHO-DUKX
Nature of the data set: Kv1.3 blocker activity in FLIPR thallium assay. Format: cell-based. In outline: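 CHO-DUKX cells stably expressing Kv1.3 were pre-incubated with compound for 30 min at 37° C in buffer with 0.02% w/v casein. Depolarization used final stimulus buffer with 5 mM K2SO4 and 1 mM Tl2SO4. Thallium-flux fluorescence was read at maximum response at 50 s, 37° C, and IC50 derived.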

Another data set deals with T4, human Kv1.6 (Homo sapiens, UniProt P17658).
T4 construct: expressed in transfected cells; host or cells: CHO
Nature of the data set: cell-based. As to conditions: for Selectivity ratio Kv1.6/Kv1.3: ratio of patch clamp IC50 values.

Another data set addresses T5, human Kv1.3 (Homo sapiens, UniProt P22001).
T5 construct: expressed in transfected cells; host or cells: CHO
Nature of the data set: cell-based. As to conditions: CHO cells, QPatch whole-cell; read-out: Potency IC50 Kv1.3.

Data set [6] is described as follows: Pharmacokinetic characterisation according to example 6 of PCT/EP2020/076187. The note with it: in vivo; dose 70 nmol/kg. How it is done:
The pharmacokinetic characterization of compound 14 were performed according to the method described in example 6 of international patent application PCT/EP2020/076187.

The target in another data set is Rat whole blood (Rattus norvegicus, UniProt P15384). It is filed as cell-based. The note with it: IL-17A release, thapsigargin, 24 Hr, at least 2 replicates.
Data set [7] has as its target human Kv1.3 voltage-gated K+ channel (potassium voltage-gated channel subfamily A member 3) (human) (UniProt P22001). Nature of the data set: cell-based or functional assay.
Data set [8] has as its target human Kv1.1 potassium ion channel (human) (UniProt Q09470). Put plainly: cell-based or functional assay.

Where a SMILES comes first, the peptide text is derived from it. Bridges are numbered along the chain shown (N, C = ends). [ ]: non-standard residue; d: D form. Nle = CCCC[C@H](N)C(=O)O; Dab = NCC[C@H](N)C(=O)O

Chain of human Kv1.1 potassium ion channel (human) (Q09470 whole entry): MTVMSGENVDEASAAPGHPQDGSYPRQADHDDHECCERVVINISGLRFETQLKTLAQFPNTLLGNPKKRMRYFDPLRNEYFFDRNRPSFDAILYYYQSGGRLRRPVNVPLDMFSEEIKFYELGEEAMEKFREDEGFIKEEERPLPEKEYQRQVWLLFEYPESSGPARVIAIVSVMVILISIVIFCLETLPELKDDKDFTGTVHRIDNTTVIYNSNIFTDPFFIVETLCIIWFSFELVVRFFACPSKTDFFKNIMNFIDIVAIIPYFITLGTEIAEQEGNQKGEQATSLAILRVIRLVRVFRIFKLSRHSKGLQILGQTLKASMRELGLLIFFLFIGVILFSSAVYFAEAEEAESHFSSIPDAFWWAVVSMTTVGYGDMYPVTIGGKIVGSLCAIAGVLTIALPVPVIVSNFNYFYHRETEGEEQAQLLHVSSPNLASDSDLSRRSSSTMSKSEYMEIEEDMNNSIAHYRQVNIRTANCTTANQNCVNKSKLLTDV
T1 sequence (Q09470 whole entry): as above
Chain of human Kv1.3 (potassium voltage-gated channel subfamily A member 3) (human) (P22001 whole entry): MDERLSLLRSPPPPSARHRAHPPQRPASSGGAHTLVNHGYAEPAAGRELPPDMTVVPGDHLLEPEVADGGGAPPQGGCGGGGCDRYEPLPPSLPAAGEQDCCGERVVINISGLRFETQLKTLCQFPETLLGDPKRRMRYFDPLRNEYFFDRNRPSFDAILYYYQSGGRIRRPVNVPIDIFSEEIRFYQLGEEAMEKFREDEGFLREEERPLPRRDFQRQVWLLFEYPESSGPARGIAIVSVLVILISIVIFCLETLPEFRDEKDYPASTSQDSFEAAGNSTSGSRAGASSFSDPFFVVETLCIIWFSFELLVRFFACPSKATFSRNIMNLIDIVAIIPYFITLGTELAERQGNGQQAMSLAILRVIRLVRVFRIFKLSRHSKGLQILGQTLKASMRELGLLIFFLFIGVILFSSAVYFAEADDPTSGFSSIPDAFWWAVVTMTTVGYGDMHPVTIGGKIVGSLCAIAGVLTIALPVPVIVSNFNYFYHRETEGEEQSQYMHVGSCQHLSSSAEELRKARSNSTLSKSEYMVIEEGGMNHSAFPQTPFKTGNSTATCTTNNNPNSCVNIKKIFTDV
Chain of human Kv1.2 potassium ion channel (human) (P16389 whole entry): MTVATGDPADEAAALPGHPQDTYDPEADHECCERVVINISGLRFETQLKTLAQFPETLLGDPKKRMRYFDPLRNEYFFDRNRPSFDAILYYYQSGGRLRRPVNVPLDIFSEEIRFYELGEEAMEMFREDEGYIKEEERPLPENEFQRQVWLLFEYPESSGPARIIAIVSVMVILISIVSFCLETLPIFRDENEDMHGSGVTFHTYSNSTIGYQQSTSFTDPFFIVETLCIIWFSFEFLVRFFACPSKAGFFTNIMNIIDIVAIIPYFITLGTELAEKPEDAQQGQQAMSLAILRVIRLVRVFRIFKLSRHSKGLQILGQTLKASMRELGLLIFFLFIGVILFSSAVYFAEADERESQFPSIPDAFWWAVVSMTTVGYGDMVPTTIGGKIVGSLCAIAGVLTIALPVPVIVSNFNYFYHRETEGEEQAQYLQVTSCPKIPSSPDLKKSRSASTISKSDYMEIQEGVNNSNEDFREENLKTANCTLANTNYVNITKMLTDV
T2 sequence (P16389 whole entry): as above
T4 sequence (P17658 whole entry): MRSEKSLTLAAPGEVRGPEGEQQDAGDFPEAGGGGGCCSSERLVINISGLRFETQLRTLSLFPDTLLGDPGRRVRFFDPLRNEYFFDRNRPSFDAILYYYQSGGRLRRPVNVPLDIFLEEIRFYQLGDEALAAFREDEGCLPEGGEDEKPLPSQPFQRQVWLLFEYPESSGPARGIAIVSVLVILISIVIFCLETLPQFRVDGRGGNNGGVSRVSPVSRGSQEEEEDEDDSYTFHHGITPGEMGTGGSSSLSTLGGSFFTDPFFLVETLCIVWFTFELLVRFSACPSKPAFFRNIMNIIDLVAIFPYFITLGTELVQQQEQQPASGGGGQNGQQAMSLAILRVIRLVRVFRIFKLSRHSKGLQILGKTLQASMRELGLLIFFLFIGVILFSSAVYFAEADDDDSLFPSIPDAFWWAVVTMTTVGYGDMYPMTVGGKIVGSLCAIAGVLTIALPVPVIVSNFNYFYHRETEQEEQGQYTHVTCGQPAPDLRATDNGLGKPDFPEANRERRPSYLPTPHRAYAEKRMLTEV
Chain of human Kv1.6 potassium ion channel (human) (P17658 whole entry): as above
Chain of Rat whole blood (P15384 whole entry): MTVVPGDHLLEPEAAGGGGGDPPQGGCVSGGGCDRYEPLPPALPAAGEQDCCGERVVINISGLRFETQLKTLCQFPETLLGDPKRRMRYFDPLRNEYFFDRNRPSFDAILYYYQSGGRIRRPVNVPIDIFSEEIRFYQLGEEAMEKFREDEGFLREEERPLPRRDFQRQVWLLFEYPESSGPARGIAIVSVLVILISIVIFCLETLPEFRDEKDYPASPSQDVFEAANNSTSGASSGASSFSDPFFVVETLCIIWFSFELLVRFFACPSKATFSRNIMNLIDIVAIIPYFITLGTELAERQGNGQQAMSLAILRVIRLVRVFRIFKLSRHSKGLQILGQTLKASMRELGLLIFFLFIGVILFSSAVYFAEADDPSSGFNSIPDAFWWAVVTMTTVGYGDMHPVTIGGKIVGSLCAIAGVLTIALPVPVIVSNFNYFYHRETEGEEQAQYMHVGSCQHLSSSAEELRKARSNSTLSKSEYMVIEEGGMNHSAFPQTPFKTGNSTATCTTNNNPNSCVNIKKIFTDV
T3 sequence (P22001 whole entry): as the sequence (P22001 whole entry) above
Chain of human Kv1.3 voltage-gated K+ channel (potassium voltage-gated channel subfamily A member 3) (human) (P22001 whole entry): as above
T5 sequence (P22001 whole entry): as above

For the compound ShK (peptide), the Potency IC50 (nM) Kv1.3 in data set [1] amounted to 0.017 nM. The Potency IC50 (nM) Kv1.2 in data set [2] stood at 11 nM. This compound yielded a Potency IC50 (nM) Kv1.6 in data set [3] of 0.19 nM.

One may read the IC50 as the concentration that inhibits the measured activity by half. A word on the AUC(0-inf): it is total exposure, with the tail of the curve extrapolated. In general, Cmax refers to the peak of the concentration-time curve. The half-life is the time in which the quantity being followed falls by half. A higher half-life goes with slow decline. With `CCCC[C@H](NC(=O)[C@@H]1CCCN1)C(=O)N[C@@H](CCC(=O)O)C(=O)N[C@@H](CCCC)C(=O)N[C@@H](CCCNC(=N)N)C(=O)N[C@H]1CSSC[C@@H]2NC(=O)[C@H](CCCCN)NC(=O)CNC(=O)[C@H](Cc3ccccc3)NC(=O)[C@H]([C@@H](C)CC)NC(=O)[C@H](CO)NC(=O)CNC(=O)[C@H]([C@@H](C)CC)NC(=O)[C@H](C)NC(=O)[C@H](C)NC(=O)[C@H](CC(C)C)NC(=O)[C@@H]3CSSC[C@@H](C(=O)N[C@@H](Cc4ccc(O)cc4)C(=O)N4CCC[C@H]4C(=O)N[C@@H](CCCNC(=N)N)C(=O)O)NC(=O)[C@H](CCCCN)NC(=O)[C@H](CSSC[C@H](NC(=O)[C@H](CCC(=O)O)NC(=O)[C@H](C(C)C)NC(=O)[C@H](CO)NC(=O)[C@H](C)NC(=O)[C@H](CCN)NC1=O)C(=O)N[C@@H](CCCCN)C(=O)N[C@@H](CCC(N)=O)C(=O)N[C@@H](CCCCN)C(=O)N3)NC(=O)[C@H](CCCCN)NC(=O)[C@H](CCCCN)NC(=O)[C@H](CC(N)=O)NC(=O)[C@H](CCCC)NC2=O` [Cpd No. 1] (H-P[Nle]E[Nle]RC[Dab]ASVECKQKCLAAIGSIFGKC[Nle]NKKCKCYPR-OH; disulfide 6-27, 12-32, 16-34), the IC50 on human Kv1.1 (CHO cells, QPatch whole-cell, read-out: Potency IC50 Kv1.1) was above 3000 nM; at human Kv1.2 (CHO cells, QPatch whole-cell, read-out: Potency IC50 Kv1.2) it was 480 nM; in data set [5] it was 0.12 nM; at human Kv1.6 (CHO cells, QPatch whole-cell, read-out: Potency IC50 Kv1.6), above 3000 nM; at human Kv1.3 it was 0.028 nM. At human Kv1.1, the “Selectivity ratio Kv1.1/Kv1.3” value was above 100000. For the same compound, at human Kv1.2, the “Selectivity ratio Kv1.2/Kv1.3” value was determined as 17000. Also, the area under the curve AUC(0-inf) in data set [4] was 0.152 µM·h. This compound returned a Cmax in data set [4] of 90.8 nM. In data set [4], the half-life is 1.7 h. In addition, the “Selectivity ratio Kv1.6/Kv1.3” value at human Kv1.6 is recorded as above 100000.

Turning to `CCCC[C@H](NC(=O)[C@@H]1CCCN1)C(=O)N[C@@H](CCC(=O)O)C(=O)N[C@@H](CCCC)C(=O)N[C@@H](CCCNC(=N)N)C(=O)N[C@H]1CSSC[C@@H]2NC(=O)[C@H](CCCCN)NC(=O)CNC(=O)[C@H](Cc3ccccc3)NC(=O)[C@H]([C@@H](C)CC)NC(=O)[C@H](CO)NC(=O)CNC(=O)[C@H]([C@@H](C)CC)NC(=O)[C@H](C)NC(=O)[C@H](C)NC(=O)[C@H](CC(C)C)NC(=O)[C@@H]3CSSC[C@@H](C(=O)N[C@@H](Cc4ccc(O)cc4)C(=O)N4CCC[C@H]4C(=O)N[C@@H](CCCNC(=N)N)C(N)=O)NC(=O)[C@H](CCCCN)NC(=O)[C@H](CSSC[C@H](NC(=O)[C@H](CCC(=O)O)NC(=O)[C@H](C(C)C)NC(=O)[C@H](CO)NC(=O)[C@H](C)NC(=O)[C@H](CO)NC1=O)C(=O)N[C@@H](CCCCN)C(=O)N[C@@H](CCC(N)=O)C(=O)N[C@@H](CCCCN)C(=O)N3)NC(=O)[C@H](CCCCN)NC(=O)[C@H](CCCCN)NC(=O)[C@H](CC(N)=O)NC(=O)[C@H](CCCC)NC2=O` [compound 13] (H-P[Nle]E[Nle]RCSASVECKQKCLAAIGSIFGKC[Nle]NKKCKCYPR-NH2; disulfide 6-27, 12-32, 16-34), in [6], the total exposure AUC(0-inf) was 0.0268 µM·h, the Cmax worked out at 16.5 nM and the half-life is 1.7 h. Further, the “Selectivity ratio Kv1.1/Kv1.3” value on human Kv1.1 is listed as above 16200. This compound registered an IC50 at Rat whole blood of 0.34 nM. The “Selectivity ratio Kv1.2/Kv1.3” value on human Kv1.2 is on record as 1689. The “Selectivity ratio Kv1.6/Kv1.3” value at human Kv1.6 is on record as above 16200.

“ShK-186: H-[phosphotyrosyl][8-Amino-3,6-dioxaoctanoyl]…-NH2 (peptide)” displayed an IC50 of IL-2 release, anti-CD3 stimulated human PBMCs (Example 5b) in data set [7] of 0.05 nM.

Compound Moka1 (peptide) gave a Potency IC50 (nM) Kv1.3 in data set [1] of 9 nM. In data set [8], this compound yielded a Potency IC50 (nM) Kv1.1 above 3000 nM and a Selectivity Kv1.1/Kv1.3 above 300. Moreover, in [2], the Potency IC50 (nM) Kv1.2 worked out at 275 nM and the Selectivity Kv1.2/Kv1.3 was 31. For the same compound, in data set [3], the Potency IC50 (nM) Kv1.6 was above 3000 nM and the Selectivity Kv1.6/Kv1.3 was above 300.

Vm24 (peptide) displayed a Potency IC50 (nM) Kv1.3 in [1] of 0.15 nM. In [8], the Potency IC50 (nM) Kv1.1 stood at 0.097 nM and the Selectivity Kv1.1/Kv1.3 came to 0.65. In data set [2], this compound showed a Potency IC50 (nM) Kv1.2 of 4.7 nM and a Selectivity Kv1.2/Kv1.3 of 31. In addition, in [3], the Potency IC50 (nM) Kv1.6 turned out to be 21 nM and the Selectivity Kv1.6/Kv1.3 was determined as 139.
